Assay results published in the supplement of paper PMC7125110.
± gives the standard error. For some assays here: This sample holds only a part of the variants without activity.

B1: glmS ribozyme (parent)
chain: AUAAAAGCGCCAGAACUACAGAAAUGUAGUUGACGAGGAGGAGGUUUAUCGAAUUUUCGGCGGAUGCCUCCAAA

How the values were obtained:
Conditions in all cases: with glucosamine-6-phosphate
[1] = variants of: B1; experiment: kcat; higher = faster cleavage; RNA array
Summary of the method: (§1)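 Ribozyme variants carrying barcodes were transcribed in situ on sequenced MiSeq chips by E. coli RNA polymerase and tracked at 37 °C with a hybridised Cy3 probe. They were exposed to 40 μM to 10 mM glucosamine-6-phosphate in HEPES/KCl/Mg(OAc)2 buffer. kobs came from exponential decay fits of normalised per-tile medians, and kcat and KM from weighted Michaelis–Menten fits.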

[2] = variants of: B1; experiment: self-cleavage kobs at 40 uM GlcN6P; higher = faster cleavage; RNA array
Summary of the method: as §1

[3] = variants of: B1; experiment: self-cleavage kobs at 640 uM GlcN6P; higher = faster cleavage; RNA array
Summary of the method: as §1

[4] = variants of: B1; experiment: self-cleavage kobs at 2500 uM GlcN6P; higher = faster cleavage; RNA array
Summary of the method: as §1

[5] = variants of: B1; experiment: self-cleavage kobs at 10000 uM GlcN6P; higher = faster cleavage; RNA array
Summary of the method: as §1

[6] = variants of: B1; experiment: self-cleavage kobs at 160 uM GlcN6P; higher = faster cleavage; RNA array
Summary of the method: as §1

[7] = variants of: B1; experiment: KM; higher = weaker cofactor use; RNA array
Summary of the method: as §1

## A14U U31G A64G
[1]
  kcat: 0.00476 ± 0.0018 s⁻¹
[2]
  self-cleavage kobs at 40 uM GlcN6P: 6.69e-05 ± 1.5e-05 s⁻¹
[3]
  self-cleavage kobs at 640 uM GlcN6P: 0.000996 ± 0.00037 s⁻¹
[4]
  self-cleavage kobs at 2500 uM GlcN6P: 0.00162 ± 0.00048 s⁻¹
[5]
  self-cleavage kobs at 10000 uM GlcN6P: 0.00468 ± 0.0012 s⁻¹

## C16A A36C C71A
[1]
  kcat: < 1e-05 s⁻¹
[5]
  self-cleavage kobs at 10000 uM GlcN6P: < 1e-05 s⁻¹

## U30C C50G
[1]
  kcat: 0.000183 ± 3.9e-05 s⁻¹
[2]
  self-cleavage kobs at 40 uM GlcN6P: 0.000126 ± 3.1e-05 s⁻¹
[6]
  self-cleavage kobs at 160 uM GlcN6P: 0.000338 ± 0.00011 s⁻¹
[3]
  self-cleavage kobs at 640 uM GlcN6P: 0.000179 ± 4.8e-05 s⁻¹
[4]
  self-cleavage kobs at 2500 uM GlcN6P: 0.000149 ± 3.8e-05 s⁻¹
[5]
  self-cleavage kobs at 10000 uM GlcN6P: 0.000318 ± 9.9e-05 s⁻¹

## C16U U47G A52U
[1]
  kcat: 0.000133 ± 8.3e-06 s⁻¹
[7]
  KM: 1230 ± 200 µM
[3]
  self-cleavage kobs at 640 uM GlcN6P: 4.73e-05 ± 1.3e-05 s⁻¹
[4]
  self-cleavage kobs at 2500 uM GlcN6P: 8.23e-05 ± 2.3e-05 s⁻¹
[5]
  self-cleavage kobs at 10000 uM GlcN6P: 0.000122 ± 2.5e-05 s⁻¹

## A15C U47C
[1]
  kcat: 0.000622 ± 8.7e-05 s⁻¹
[7]
  KM: 3550 ± 830 µM
[3]
  self-cleavage kobs at 640 uM GlcN6P: 0.000108 ± 2e-05 s⁻¹
[4]
  self-cleavage kobs at 2500 uM GlcN6P: 0.000244 ± 4.5e-05 s⁻¹
[5]
  self-cleavage kobs at 10000 uM GlcN6P: 0.000465 ± 7.5e-05 s⁻¹

## G29U C50A G60U
[1]
  kcat: 1e-05 ± 4.9e-06 s⁻¹
[4]
  self-cleavage kobs at 2500 uM GlcN6P: < 1e-05 s⁻¹

## A14U C50G C68A
[1]
  kcat: 7.35e-05 ± 2e-05 s⁻¹
[2]
  self-cleavage kobs at 40 uM GlcN6P: 5.1e-05 ± 1.3e-05 s⁻¹
[3]
  self-cleavage kobs at 640 uM GlcN6P: 0.000122 ± 2.5e-05 s⁻¹
[4]
  self-cleavage kobs at 2500 uM GlcN6P: 7.66e-05 ± 2.9e-05 s⁻¹
[5]
  self-cleavage kobs at 10000 uM GlcN6P: 5.56e-05 ± 1.5e-05 s⁻¹

## A64G C67G
[1]
  kcat: 0.000471 ± 1.9e-05 s⁻¹
[7]
  KM: 2090 ± 180 µM
[3]
  self-cleavage kobs at 640 uM GlcN6P: 0.000111 ± 1.5e-05 s⁻¹
[4]
  self-cleavage kobs at 2500 uM GlcN6P: 0.000275 ± 6.1e-05 s⁻¹
[5]
  self-cleavage kobs at 10000 uM GlcN6P: 0.000386 ± 3.6e-05 s⁻¹

## A36U C61A
[1]
  kcat: < 1e-05 s⁻¹
[2]
  self-cleavage kobs at 40 uM GlcN6P: < 1e-05 s⁻¹
[5]
  self-cleavage kobs at 10000 uM GlcN6P: < 1e-05 s⁻¹
